The text below walks through data of patent publication US20130210709A1 (ANCHOR THERAPEUTICS, published 2013).

In experiment [1] the target is T1, CXCR4 receptor (human, UniProt P61073 1-352). Nature of the experiment: cell-based or functional assay.
For experiment [2], the target named is T1, CXCR4 receptor. Nature of the experiment: cell-based or functional assay. This is another data set of the same source.

Ends that are not written are not given here. * marks the point of attachment. Palmitoyl = CCCCCCCCCCCCCCCC(=O)*

T1 sequence (P61073 whole entry): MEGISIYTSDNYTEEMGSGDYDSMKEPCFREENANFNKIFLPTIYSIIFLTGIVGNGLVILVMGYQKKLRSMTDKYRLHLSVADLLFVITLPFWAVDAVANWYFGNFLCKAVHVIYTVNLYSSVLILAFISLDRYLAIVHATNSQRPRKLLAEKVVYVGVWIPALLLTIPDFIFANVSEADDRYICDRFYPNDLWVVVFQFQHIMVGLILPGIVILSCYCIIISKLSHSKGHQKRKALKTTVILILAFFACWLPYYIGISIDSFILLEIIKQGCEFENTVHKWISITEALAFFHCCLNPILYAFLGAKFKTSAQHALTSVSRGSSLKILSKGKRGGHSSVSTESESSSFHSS

B1: CXCR4 i1 loop compound 148 (peptide)
peptide: Palmitoyl-MGYQKKLRSMADKYRL-NH2
SMILES: CCCCCCCCCCCCCCCC(=O)N[C@@H](CCSC)C(=O)NCC(=O)N[C@@H](Cc1ccc(O)cc1)C(=O)N[C@@H](CCC(N)=O)C(=O)N[C@@H](CCCCN)C(=O)N[C@@H](CCCCN)C(=O)N[C@@H](CC(C)C)C(=O)N[C@@H](CCCNC(=N)N)C(=O)N[C@@H](CO)C(=O)N[C@@H](CCSC)C(=O)N[C@@H](C)C(=O)N[C@@H](CC(=O)O)C(=O)N[C@@H](CCCCN)C(=O)N[C@@H](Cc1ccc(O)cc1)C(=O)N[C@@H](CCCNC(=N)N)C(=O)N[C@@H](CC(C)C)C(N)=O
For the molecule B1, the “IC50 (nM), calcium flux, CCRF-CEM” value in experiment [1] was found to be 298 nM.

B2: CXCR4 i1 loop compound 147 (peptide)
peptide: Palmitoyl-MGYQKKLRSATDKYRL-NH2
SMILES: CCCCCCCCCCCCCCCC(=O)N[C@@H](CCSC)C(=O)NCC(=O)N[C@@H](Cc1ccc(O)cc1)C(=O)N[C@@H](CCC(N)=O)C(=O)N[C@@H](CCCCN)C(=O)N[C@@H](CCCCN)C(=O)N[C@@H](CC(C)C)C(=O)N[C@@H](CCCNC(=N)N)C(=O)N[C@@H](CO)C(=O)N[C@@H](C)C(=O)N[C@H](C(=O)N[C@@H](CC(=O)O)C(=O)N[C@@H](CCCCN)C(=O)N[C@@H](Cc1ccc(O)cc1)C(=O)N[C@@H](CCCNC(=N)N)C(=O)N[C@@H](CC(C)C)C(N)=O)[C@@H](C)O
On to B2, for which the “IC50 (nM), calcium flux, CCRF-CEM” value in experiment [1] turned out to be 54 nM.

B3: CXCR4 i3 loop compound 105 (peptide)
peptide: KLSHSKGHQKRKALKTTVIL-NH2
modifications: not fully specified (N-terminus); also: dual lipid, backbone lipid not given here
In the case of B3, in experiment [2], the “AUC (% of vehicle), chemotaxis, CEM, 1.0 uM” value (from here on “AUC (% of vehicle), chemotaxis”) is 23.8 % of vehicle; the “Max (% of vehicle), chemotaxis, CEM, 1.0 uM” value (“Max (% of vehicle), chemotaxis” for short) was 42.9 % of vehicle; the “Peak Ratio, chemotaxis, CEM, 1.0 uM” value stood at 0.2.

B4: CXCR4 i3 loop compound 99 (peptide)
peptide: Palmitoyl-HSKGHQKRKALKTTV-NH2
SMILES: CCCCCCCCCCCCCCCC(=O)N[C@@H](Cc1c[nH]cn1)C(=O)N[C@@H](CO)C(=O)N[C@@H](CCCCN)C(=O)NCC(=O)N[C@@H](Cc1c[nH]cn1)C(=O)N[C@@H](CCC(N)=O)C(=O)N[C@@H](CCCCN)C(=O)N[C@@H](CCCNC(=N)N)C(=O)N[C@@H](CCCCN)C(=O)N[C@@H](C)C(=O)N[C@@H](CC(C)C)C(=O)N[C@@H](CCCCN)C(=O)N[C@H](C(=O)N[C@H](C(=O)N[C@H](C(N)=O)C(C)C)[C@@H](C)O)[C@@H](C)O
For B4, in experiment [2], the “AUC (% of vehicle), chemotaxis” value is 45 % of vehicle; the “Max (% of vehicle), chemotaxis” value was 64.5 % of vehicle; the “Peak Ratio, chemotaxis, CEM, 1.0 uM” value was 0.2.

B5: CXCR4 i1 loop compound 149 (peptide)
peptide: Palmitoyl-MGYQKKLRSMTAKYRL-NH2
SMILES: CCCCCCCCCCCCCCCC(=O)N[C@@H](CCSC)C(=O)NCC(=O)N[C@@H](Cc1ccc(O)cc1)C(=O)N[C@@H](CCC(N)=O)C(=O)N[C@@H](CCCCN)C(=O)N[C@@H](CCCCN)C(=O)N[C@@H](CC(C)C)C(=O)N[C@@H](CCCNC(=N)N)C(=O)N[C@@H](CO)C(=O)N[C@@H](CCSC)C(=O)N[C@H](C(=O)N[C@@H](C)C(=O)N[C@@H](CCCCN)C(=O)N[C@@H](Cc1ccc(O)cc1)C(=O)N[C@@H](CCCNC(=N)N)C(=O)N[C@@H](CC(C)C)C(N)=O)[C@@H](C)O
In the case of B5, the “IC50 (nM), calcium flux, CCRF-CEM” value in experiment [1] came to 126 nM.

B6: CXCR4 i3 loop compound 97 (peptide)
peptide: Palmitoyl-HSKGHQKRKALKT-NH2
SMILES: CCCCCCCCCCCCCCCC(=O)N[C@@H](Cc1c[nH]cn1)C(=O)N[C@@H](CO)C(=O)N[C@@H](CCCCN)C(=O)NCC(=O)N[C@@H](Cc1c[nH]cn1)C(=O)N[C@@H](CCC(N)=O)C(=O)N[C@@H](CCCCN)C(=O)N[C@@H](CCCNC(=N)N)C(=O)N[C@@H](CCCCN)C(=O)N[C@@H](C)C(=O)N[C@@H](CC(C)C)C(=O)N[C@@H](CCCCN)C(=O)N[C@H](C(N)=O)[C@@H](C)O
Take B6: in experiment [2], the “AUC (% of vehicle), chemotaxis” value was 48.9 % of vehicle; the “Max (% of vehicle), chemotaxis” value was 54.7 % of vehicle; the “Peak Ratio, chemotaxis, CEM, 1.0 uM” value is 0.2.

B7: CXCR4 i3 loop compound 100 (peptide)
peptide: Palmitoyl-HSKGHQKRKALKTTVI-NH2
SMILES: CCCCCCCCCCCCCCCC(=O)N[C@@H](Cc1c[nH]cn1)C(=O)N[C@@H](CO)C(=O)N[C@@H](CCCCN)C(=O)NCC(=O)N[C@@H](Cc1c[nH]cn1)C(=O)N[C@@H](CCC(N)=O)C(=O)N[C@@H](CCCCN)C(=O)N[C@@H](CCCNC(=N)N)C(=O)N[C@@H](CCCCN)C(=O)N[C@@H](C)C(=O)N[C@@H](CC(C)C)C(=O)N[C@@H](CCCCN)C(=O)N[C@H](C(=O)N[C@H](C(=O)N[C@H](C(=O)N[C@H](C(N)=O)[C@@H](C)CC)C(C)C)[C@@H](C)O)[C@@H](C)O
Turning to B7, in experiment [2], the “AUC (% of vehicle), chemotaxis” value is 49.3 % of vehicle; the “Max (% of vehicle), chemotaxis” value was 49.8 % of vehicle; the “Peak Ratio, chemotaxis, CEM, 1.0 uM” value was 0.04.

B8: CXCR4 i3 loop compound 101 (peptide)
peptide: Palmitoyl-SKLSHSKGHQKRKALK-NH2
SMILES: CCCCCCCCCCCCCCCC(=O)N[C@@H](CO)C(=O)N[C@@H](CCCCN)C(=O)N[C@@H](CC(C)C)C(=O)N[C@@H](CO)C(=O)N[C@@H](Cc1c[nH]cn1)C(=O)N[C@@H](CO)C(=O)N[C@@H](CCCCN)C(=O)NCC(=O)N[C@@H](Cc1c[nH]cn1)C(=O)N[C@@H](CCC(N)=O)C(=O)N[C@@H](CCCCN)C(=O)N[C@@H](CCCNC(=N)N)C(=O)N[C@@H](CCCCN)C(=O)N[C@@H](C)C(=O)N[C@@H](CC(C)C)C(=O)N[C@@H](CCCCN)C(N)=O
For B8, in experiment [2], the “AUC (% of vehicle), chemotaxis” value was 75.5 % of vehicle; the “Max (% of vehicle), chemotaxis” value is 74.9 % of vehicle; the “Peak Ratio, chemotaxis, CEM, 1.0 uM” value was found to be 1.

B9: CXCR4 i3 loop compound 104 (peptide)
peptide: Palmitoyl-IIISKLSHSKGHQKRKALKT
modifications: not fully specified (C-terminus); also: dual lipid, second lipid position not given here
B9: in experiment [2], the “AUC (% of vehicle), chemotaxis” value was 36.4 % of vehicle; the “Max (% of vehicle), chemotaxis” value was 56.4 % of vehicle; the “Peak Ratio, chemotaxis, CEM, 1.0 uM” value came out at 0.2.

B10: CXCR4 i3 loop compound 103 (peptide)
peptide: IIISKLSHSKGHQKRKALKT-NH2
modifications: not fully specified (N-terminus); also: dual lipid, backbone lipid not given here
Turning to B10, in experiment [2], the “AUC (% of vehicle), chemotaxis” value is 26.3 % of vehicle; the “Max (% of vehicle), chemotaxis” value was 24.4 % of vehicle; the “Peak Ratio, chemotaxis, CEM, 1.0 uM” value turned out to be 1.

B11: CXCR4 i1 loop compound 146 (peptide)
peptide: Palmitoyl-MGYQKKLRAMTDKYRL-NH2
SMILES: CCCCCCCCCCCCCCCC(=O)N[C@@H](CCSC)C(=O)NCC(=O)N[C@@H](Cc1ccc(O)cc1)C(=O)N[C@@H](CCC(N)=O)C(=O)N[C@@H](CCCCN)C(=O)N[C@@H](CCCCN)C(=O)N[C@@H](CC(C)C)C(=O)N[C@@H](CCCNC(=N)N)C(=O)N[C@@H](C)C(=O)N[C@@H](CCSC)C(=O)N[C@H](C(=O)N[C@@H](CC(=O)O)C(=O)N[C@@H](CCCCN)C(=O)N[C@@H](Cc1ccc(O)cc1)C(=O)N[C@@H](CCCNC(=N)N)C(=O)N[C@@H](CC(C)C)C(N)=O)[C@@H](C)O
On to B11, for which, in experiment [1], the “IC50 (nM), calcium flux, CCRF-CEM” value was determined as 170 nM.
